{"source": "paper PMC5018964", "about": "“Visualization and ligand-induced modulation of dopamine receptor dimerization at the single molecule level” (Scientific Reports, 2016)", "binders": {"B1": {"name": "N-terminally SNAP-tagged human dopamine D2L receptor, P14416 1-443 (receptor)", "chain": "MDPLNLSWYDDDLERQNWSRPFNGSDGKADRPHYNYYATLLTLLIAVIVFGNVLVCMAVSREKALQTTTNYLIVSLAVADLLVATLVMPWVVYLEVVGEWKFSRIHCDIFVTLDVMMCTASILNLCAISIDRYTAVAMPMLYNTRYSSKRRVTVMISIVWVLSFTISCPLLFGLNNADQNECIIANPAFVVYSSIVSFYVPFIVTLLVYIKIYIVLRRRRKRVNTKRSSRAFRAHLRAPLKGNCTHPEDMKLCTVIMKSNGSFPVNRRRVEAARRAQELEMEMLSSTSPPERTRYSPIPPSHHQLTLPDPSHHGLHSTPDSPAKPEKNGHAKDHPKIAKIFEIQTMPNGKTRTSLKTMSRRKLSQQKEKKATQMLAIVLGVFIICWLPFFITHILNIHCDCNIPPVLYSAFTWLGYVNSAVNPIIYTTFNIEFRKAFLKILHC", "modifications": "here or on the partner: Alexa546 covalently on the SNAP-tag through benzylguanine (Alexa546-BG) in the SNAP-labelling experiments; Alexa546 covalently on the SNAP-tag through benzylguanine (Alexa546-BG) in the SNAP-labelling experiments"}}, "details_in_all_cases": "remark: other sources report otherwise", "key": {"[1]": {"target": "T1, N-terminally SNAP-tagged human dopamine D2L receptor (human), P14416", "T1 chain": "B1 chain", "experiment": "single-molecule TIRF microscopy (intensity distribution of fluorescent spots); Alexa546-BG-labelled SNAP-D2L on living CHO cells, incubated 1 h with the bivalent antagonists 2a or 2b at 10-fold Ki"}, "[2]": {"target": "T1, N-terminally SNAP-tagged human dopamine …", "experiment": "single-molecule TIRF microscopy (apparent lifetime of particle colocalization); Alexa546-labelled SNAP-D2L on living CHO cells with the bivalent ligand 2a; 120 trajectories, one-phase exponential decay; apparent"}, "[3]": {"target": "T1, N-terminally SNAP-tagged human dopamine …", "experiment": "single-molecule TIRF microscopy (apparent lifetime of particle colocalization); Alexa546-labelled SNAP-D2L on living CHO cells with the monovalent ligand 1a; 120 trajectories, one-phase exponential decay; apparent"}, "[4]": {"target": "T1, N-terminally SNAP-tagged human dopamine …", "experiment": "single-molecule TIRF microscopy (intensity distribution of fluorescent spots); receptors on living CHO cells labelled 1 h at 37 °C with a fluorescent (Cy3B) antagonist (1c, 4a or 4b) at 10-fold Ki; spots fitted with a mixed Gaussian model"}, "[5]": {"target": "T1, N-terminally SNAP-tagged human dopamine …", "experiment": "single-molecule TIRF microscopy (lifetime of transient dimers from intensity trajectories); Alexa546-labelled SNAP-D2L on living CHO cells, ligand-free; 120 dimers whose trajectories show intensity doubling and return; one-phase exponential fit"}, "[6]": {"target": "T1, N-terminally SNAP-tagged human dopamine …", "experiment": "single-molecule TIRF microscopy (intensity distribution of fluorescent spots); Alexa546-BG-labelled SNAP-D2L on living CHO cells, incubated 1 h with the unsymmetrical control ligands 3a or 3b (one pharmacophore, one non-binding motif) at 10-fold Ki"}, "[7]": {"target": "T1, N-terminally SNAP-tagged human dopamine …", "experiment": "single-molecule TIRF microscopy (apparent lifetime of particle colocalization); Alexa546-labelled SNAP constructs on living CHO cells, ligand-free; time from the beginning of tracking to a one-step intensity change, 120 trajectories, one-phase exponential decay; apparent"}, "[8]": {"target": "T1, N-terminally SNAP-tagged human dopamine …", "experiment": "single-molecule TIRF microscopy (intensity distribution of fluorescent spots); living stably transfected CHO cells, SNAP-tag labelled with 1 uM Alexa546-BG, ligand-free; spots of the first 10 frames fitted with a mixed Gaussian model; room temperature (24.0 ± 0.3 °C), imaging buffer pH 7.4; SNAP-D2L at 0.67 ± 0.03 spots um^-2"}}}
{"binder": "B1", "values": [{"measurement": "percent of fluorescent spots that are dimers, with bivalent antagonist 2a", "setting": "[1]", "result": 66, "unit": "%"}, {"measurement": "percent of fluorescent spots that are dimers, with bivalent antagonist 2b", "setting": "[1]", "result": 58, "unit": "%"}, {"measurement": "apparent colocalization lifetime (tau), with bivalent ligand 2a", "setting": "[2]", "result": 1.16, "unit": "s"}, {"measurement": "apparent colocalization lifetime (tau), with monovalent ligand 1a", "setting": "[3]", "result": 0.42, "unit": "s"}, {"measurement": "percent of fluorescent spots that are dimers, labelled with antagonist 1c", "setting": "[4]", "result": 26, "unit": "%"}, {"measurement": "percent of fluorescent spots that are monomers, labelled with antagonist 1c", "setting": "[4]", "result": 74, "unit": "%"}, {"measurement": "half-life (t1/2) of the transient dimer", "setting": "[5]", "result": 0.35, "unit": "s"}, {"measurement": "lifetime of the transient dimer", "setting": "[5]", "result": 0.5, "unit": "s"}, {"measurement": "percent of fluorescent spots that are dimers, with control ligand 3a", "setting": "[6]", "result": 33, "unit": "%"}, {"measurement": "percent of fluorescent spots that are dimers, with control ligand 3b", "setting": "[6]", "result": 34, "unit": "%"}, {"measurement": "percent of fluorescent spots that are monomers, with control ligand 3a", "setting": "[6]", "result": 67, "unit": "%"}, {"measurement": "percent of fluorescent spots that are monomers, with control ligand 3b", "setting": "[6]", "result": 66, "unit": "%"}, {"measurement": "apparent colocalization lifetime (tau)", "setting": "[7]", "result": 0.46, "unit": "s"}, {"measurement": "percent of fluorescent spots that are dimers", "setting": "[8]", "result": 30, "unit": "%"}, {"measurement": "percent of fluorescent spots that are monomers", "setting": "[8]", "result": 70, "unit": "%"}, {"measurement": "stoichiometry N", "setting": "[8]", "result": 2}]}
